These results are taken from patent US20260167681A1 (POSTECH RESEARCH AND BUSINESS DEVELOPMENT FOUNDATION, published 2026).

Bounds are passed on as bounds.

This assay has as its target T1, ovalbumin (OVA) (UniProt P01012 2-386).
T1 construct: also called model antigen ovalbumin
T1 sequence (looked up): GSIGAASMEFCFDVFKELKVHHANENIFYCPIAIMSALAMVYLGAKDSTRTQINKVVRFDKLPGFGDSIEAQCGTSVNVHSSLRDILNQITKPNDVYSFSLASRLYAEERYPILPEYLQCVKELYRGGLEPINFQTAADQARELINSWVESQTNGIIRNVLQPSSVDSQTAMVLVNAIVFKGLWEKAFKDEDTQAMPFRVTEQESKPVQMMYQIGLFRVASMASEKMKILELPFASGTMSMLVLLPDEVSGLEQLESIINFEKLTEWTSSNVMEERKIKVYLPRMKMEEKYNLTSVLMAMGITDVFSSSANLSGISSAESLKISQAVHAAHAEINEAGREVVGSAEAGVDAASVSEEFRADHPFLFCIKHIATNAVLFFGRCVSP
The experiment in a line: zeta potential (DLS, Zetasizer) of ovalbumin/MAP-AP mixtures at weight ratios 2, 1 and 0.5. As to the method:
First, ovalbumin and the adhesive adjuvant protein (MAP-AP) were prepared at a concentration of 1 mg/mL each, and nanocomplexes were then prepared with ovalbumin and MAP-AP at weight ratios of 2, 1, and 0.5, respectively. Dynamic light scattering (DLS, Zetasizer, UK) was used to measure the surface charge of the samples. The concentration of each substance was maintained below 1 mg/mL, and all measurements were performed at room temperature.
As a result, the spontaneous formation of nanocomplexes by the negatively charged ovalbumin and adhesive adjuvant protein (MAP-AP) was confirmed through changes in surface charge. When the mass ratio of ovalbumin to MAP-AP reached 1 or higher, the adhesive adjuvant protein (MAP-AP) became saturated, and the mass ratio was ultimately set to 1.

B1: adhesive adjuvant protein (MAP-AP; MAP-based Adjuvant Protein) (other)
chain: MAKPSYPPTYKAKPSYPPTYKAKPSYPPTYKAKPSYPPTYKAKPSYPPTYKAKPSYPPTYKPWSSEEYKGGYYPGNTYHYHSGGSYHGSGYHGGYKGKYYGKAKKYYYKYKNSGKYKYLKKARKYHRKGYKKYYGGGSSAKPSYPPTYKAKPSYPPTYKAKPSYPPTYKAKPSYPPTYKAKPSYPPTYKAKPSYPPTYKLGGGGSAKFVAAWTLKAAA
notes: Recombinant fusion protein made in E. coli; also called MAP-based Adhesive adjuvant protein
Turning to B1, the “mass ratio of ovalbumin to MAP-AP at which MAP-AP is saturated” value is ≥ 1 mass ratio (ovalbumin:MAP-AP).
